Measurements from patent EP4660202A1.

Experiments:
huTregL1-his (human) [1] = target: T1, huTregL1-his (human) (UniProt Q96JA1); test: cross-linking MS (DSBU), sequence L88-K92 of huTregL1-his, chymotrypsin or trypsin
T1 sequence: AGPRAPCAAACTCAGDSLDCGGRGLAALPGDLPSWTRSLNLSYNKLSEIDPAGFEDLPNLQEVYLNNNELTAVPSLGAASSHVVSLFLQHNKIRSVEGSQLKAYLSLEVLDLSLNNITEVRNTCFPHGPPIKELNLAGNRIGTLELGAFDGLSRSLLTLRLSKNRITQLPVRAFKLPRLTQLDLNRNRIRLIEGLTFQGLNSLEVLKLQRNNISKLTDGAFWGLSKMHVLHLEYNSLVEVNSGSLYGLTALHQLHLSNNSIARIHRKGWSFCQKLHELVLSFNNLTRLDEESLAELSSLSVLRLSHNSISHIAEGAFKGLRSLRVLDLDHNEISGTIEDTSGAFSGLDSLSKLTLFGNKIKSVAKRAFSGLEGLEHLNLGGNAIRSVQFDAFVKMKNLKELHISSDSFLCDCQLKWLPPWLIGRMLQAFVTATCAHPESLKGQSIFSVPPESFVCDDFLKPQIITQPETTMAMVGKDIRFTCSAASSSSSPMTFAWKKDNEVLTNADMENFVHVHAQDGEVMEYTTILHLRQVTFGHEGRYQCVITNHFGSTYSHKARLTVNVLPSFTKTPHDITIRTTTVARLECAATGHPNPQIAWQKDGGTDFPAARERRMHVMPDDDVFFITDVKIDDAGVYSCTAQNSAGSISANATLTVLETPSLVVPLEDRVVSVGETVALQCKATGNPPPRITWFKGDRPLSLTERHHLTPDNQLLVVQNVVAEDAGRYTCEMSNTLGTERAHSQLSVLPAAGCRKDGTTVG

huTregL1-his (human) [2] = target: T1, huTregL1-his (human); test: cross-linking MS (DSBU), sequence S362-K365 of huTregL1-his, trypsin-treated group
huTregL1-his (human) [3] = target: T1, huTregL1-his (human); test: cross-linking MS (DSBU), sequence S90-L101 of huTregL1-his, chymotrypsin or trypsin
huTregL1-his (human) [4] = target: T1, huTregL1-his (human); test: cross-linking MS (DSBU), sequence N211-W222 of huTregL1-his, chymotrypsin or trypsin
huTregL1-his (human) [5] = target: T1, huTregL1-his (human); test: covalent labelling MS (DEPC), sequence E62-L101 of huTregL1-his, antigen alone against antigen+antibody
huTregL1-his (human) [6] = target: T1, huTregL1-his (human); test: covalent labelling MS (DEPC), sequence D111-L134 of huTregL1-his, chymotrypsin-treated group, antigen alone against antigen+antibody
huTregL1-his (human) [7] = target: T1, huTregL1-his (human); test: covalent labelling MS (DEPC), sequence Q542-Y553 of huTregL1-his, chymotrypsin-treated group, antigen alone against antigen+antibody

B1: GTC210-03 clone (antibody, mouse IgG2a, V domains shown)
VH: EVQLLESGGGLVQPGGSLRLSCAASGFTFSSYDMSWVRQAPGKGLEWVSGISPDGSNIYYADSVKGRFTISRDNSKNTLYLQMNSLRAEDTAVYYCAKVGLRCRYEACSYAYGMDVWGQGTLVTVSS
VL: QSVLTQPPSASGTPGQRVTISCSGSSSNIGSNYVSWYQQLPGTAPKLLIYSDSHRPSGVPDRFSGSKSGTSASLAISGLRSEDEADYYCATWDSSLNGYVFGGGTKLTVLR
**Q.** B1 was tested. Which T% (peptides of the same sequence detected in the test sample compared to the control) (huTregL1-his (human) [1]) did it give?
**A.** The T% (peptides of the same sequence detected in the test sample compared to the control) was < 2%.

**Q.** And the T% (peptides of the same sequence detected in the test sample compared to the control) (huTregL1-his (human) [2])?
**A.** The T% (peptides of the same sequence detected in the test sample compared to the control) was 0%.

**Q.** And the T% (peptides of the same sequence detected in the test sample compared to the control) (huTregL1-his (human) [3])?
**A.** Its T% (peptides of the same sequence detected in the test sample compared to the control) is < 2%.

**Q.** What about the T% (peptides of the same sequence detected in the test sample compared to the control) (huTregL1-his (human) [4]) of the same binder?
**A.** The T% (peptides of the same sequence detected in the test sample compared to the control) was < 2%.

**Q.** What about the labeling decrease (%) (huTregL1-his (human) [5]) of the same binder?
**A.** The labeling decrease (%) was 13.2%.

**Q.** What about the labeling decrease (%) (huTregL1-his (human) [6]) of the same binder?
**A.** Its labeling decrease (%) is 15.3%.

**Q.** What about the labeling decrease (%) (huTregL1-his (human) [7]) of the same binder?
**A.** The labeling decrease (%) was 14.7%.
